From US20150299272A1 (UNIVERSITY OF NEWCASTLE UPON TYNE, published 2015)

Experiments:
[1] = molecular target: the molecule itself; experiment: Superdex 200 gel filtration (self-association)
[2] = molecular target: Caf1-6His NT + Spacer linking peptide (Yersinia pestis); experiment: co-expression in E. coli, western blot of partly heat-dissociated polymer

B1: Caf1 WT (naturally occurring Caf1 polypeptide monomer from Yersinia pestis; fraction 1 antigen polymer) (other)
chain: ADLTASTTATATLVEPARITLTYKEGAPITIMDNGNIDTELLVGTLTLGGYKTGTTSTSVNFTDAAGDPMYLTFTSQDGNNHQFTTKVIGKDSRDFDISPKVNGENLVGDDVVLATGSQDFFVRSIGSKGGKLAAGKYTDAVTVTVSNQ
[1]
  binding result: binds
[2]
  binding result: binds
